Measurements published in patent publication US20240350544A1 (Takeda / Millennium, published 2024).
Changes are numbered by the printed parent chain.

B1: anti-BCMA scFv clone from phage display, first row of Table 3 (VH …..., VL with LCDR3 …) (scFv, V domains shown)
VH: QITLRESGGDVVQPGRSLRLSCAASGFTFSSYAIHWVRQAPGKGLEWVAVTWHDGSNKYYAESVMGRFTISRDNSKNTLYLHMNSLRAEDTGVYYCARAKFGEPQYFQHWGQGTLVTVSS
VL: DIVMTQSPSFLSASVGDRVTITCRASQGISSYLAWYQQKPGKAPKLLIYAASTLQSGVPSRFSGSGSGTEFTLTISSLQPEDFATYYCQQLNSYPWTFGQGTKVDIK
B2: anti-BCMA scFv clone from phage display, second row of Table 3 (VH …..., VL with LCDR3 …) (scFv, V domains shown)
VH: B1 VH
VL: B1 VL with S30N, S31N, K42I, S63G, N92K, W96F, Q100P, D105E
B3: anti-BCMA scFv clone from phage display, third row of Table 3 (VH …..., VL with LCDR3 …) (scFv, V domains shown)
VH: B1 VH with Q1E, I2V, T3Q, R5V, L115T
VL: B1 VL with W96F, Q100P
B4: Ab 2, lead anti-BCMA clone of Table 4 (antibody, V domains shown)
VH: B1 VH
VL: B1 VL with S30N, S31N, K42I, S63G, N92K, W96F, Q100P, D105E
B5: anti-BCMA scFv clone from phage display, first row of Table 3 (VH QITLRESGG..., VL with LCDR3 QQLNSYPWT) (scFv, V domains shown)
VH: B1 VH
VL: B1 VL
notes: Tested as scFv in periplasmic extract; also called Ab 1
B6: Ab 3, lead anti-BCMA clone of Table 4 (antibody, V domains shown)
VH: B1 VH with Q1E, I2V, T3Q, R5V, L115T
VL: B1 VL with W96F, Q100P

What was measured:
[1] = target: Bio-cyBCMA-His (biotinylated cynomolgus BCMA with His tag) (cynomolgus); assay: ELISA, scFv periplasmic extract on biotinylated cynomolgus BCMA-His
Bio-cyBCMA-His (biotinylated cynomolgus BCMA with His tag) (cynomolgus), sequence (chain, as listed by the source): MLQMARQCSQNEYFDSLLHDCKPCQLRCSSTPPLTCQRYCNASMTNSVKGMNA

hBCMA-HIS antigen = target: T1, hBCMA-HIS antigen (human, UniProt Q02223 1-54); assay: Octet (BLI), hBCMA-HIS antigen captured on sensor tips
T1 construct: It may be the same protein as Bio-huBCMA-His without, or with, biotin; also called human BCMA-6His; not shown: His tag
T1 sequence: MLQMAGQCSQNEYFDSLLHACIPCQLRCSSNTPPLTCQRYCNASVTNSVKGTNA

[2] = target: T2, human BCMA on BCMA overexpressing CHO cells (human, UniProt Q02223 1-184); assay: flow cytometry on human BCMA overexpressing CHO cells
T2 construct: also called hBCMA CHO; Hu BCMA (FACS)
T2 chain: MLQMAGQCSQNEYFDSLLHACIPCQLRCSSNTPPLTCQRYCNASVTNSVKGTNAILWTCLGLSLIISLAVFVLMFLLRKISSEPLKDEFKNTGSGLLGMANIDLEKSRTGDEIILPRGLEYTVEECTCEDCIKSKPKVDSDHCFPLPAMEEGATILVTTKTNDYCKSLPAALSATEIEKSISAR

hBCMA-mIgG2a = target: T3, hBCMA-mIgG2a (human; mouse, UniProt Q02223 1-54, limits assumed); assay: Octet (BLI), hBCMA-mIgG2a captured on sensor tips
T3 construct: not shown: mouse IgG2a portion ('mIgG2a')
T3 sequence: T1 sequence

[3] = target: T4, human BCMA protein (Octet; construct not stated) (human, UniProt Q02223 1-54, limits assumed); assay: Octet (BLI), scFv periplasmic extract, human BCMA captured on sensor tips
T4 sequence: T1 sequence

Row | Binder | PE Elisa Bio-cyBCMA-His [1] | Kd (hBCMA-HIS antigen) [nM] | koff (hBCMA-HIS antigen) [s⁻¹] | kon (hBCMA-HIS antigen) [M⁻¹ s⁻¹] | EC50 [2] [µg/mL] | Kd (hBCMA-mIgG2a) [nM] | koff (hBCMA-mIgG2a) [s⁻¹] | kon (hBCMA-mIgG2a) [M⁻¹ s⁻¹] | also measured
1 | B1 | 0.147 |  |  |  |  |  |  |  | 
2 | B2 | 0.122 |  |  |  |  |  |  |  | 
3 | B3 | 0.126 |  |  |  |  |  |  |  | 
4 | B4 |  | 0.0788 | 3.77e-05 | 479000 | 0.144 | 0.0117 | 4.44e-06 | 379000 | 
5 | B5 |  |  |  |  |  |  |  |  | koff [3]: 0.000369 s⁻¹
6 | B6 |  | 0.0608 | 1.33e-05 | 219000 | 0.117 | < 0.001 | < 1e-07 | 308000 | 
